Experimental data reported in patent US7745109B2, “Regulation of cell growth by MUC1” (Dana-Farber Cancer Insitute, Inc., priority 2003, dated 2010).

Target: T1, MUC1-p120 complexes (Homo sapiens, UniProt O60716)
T1 sequence (O60716 1-968): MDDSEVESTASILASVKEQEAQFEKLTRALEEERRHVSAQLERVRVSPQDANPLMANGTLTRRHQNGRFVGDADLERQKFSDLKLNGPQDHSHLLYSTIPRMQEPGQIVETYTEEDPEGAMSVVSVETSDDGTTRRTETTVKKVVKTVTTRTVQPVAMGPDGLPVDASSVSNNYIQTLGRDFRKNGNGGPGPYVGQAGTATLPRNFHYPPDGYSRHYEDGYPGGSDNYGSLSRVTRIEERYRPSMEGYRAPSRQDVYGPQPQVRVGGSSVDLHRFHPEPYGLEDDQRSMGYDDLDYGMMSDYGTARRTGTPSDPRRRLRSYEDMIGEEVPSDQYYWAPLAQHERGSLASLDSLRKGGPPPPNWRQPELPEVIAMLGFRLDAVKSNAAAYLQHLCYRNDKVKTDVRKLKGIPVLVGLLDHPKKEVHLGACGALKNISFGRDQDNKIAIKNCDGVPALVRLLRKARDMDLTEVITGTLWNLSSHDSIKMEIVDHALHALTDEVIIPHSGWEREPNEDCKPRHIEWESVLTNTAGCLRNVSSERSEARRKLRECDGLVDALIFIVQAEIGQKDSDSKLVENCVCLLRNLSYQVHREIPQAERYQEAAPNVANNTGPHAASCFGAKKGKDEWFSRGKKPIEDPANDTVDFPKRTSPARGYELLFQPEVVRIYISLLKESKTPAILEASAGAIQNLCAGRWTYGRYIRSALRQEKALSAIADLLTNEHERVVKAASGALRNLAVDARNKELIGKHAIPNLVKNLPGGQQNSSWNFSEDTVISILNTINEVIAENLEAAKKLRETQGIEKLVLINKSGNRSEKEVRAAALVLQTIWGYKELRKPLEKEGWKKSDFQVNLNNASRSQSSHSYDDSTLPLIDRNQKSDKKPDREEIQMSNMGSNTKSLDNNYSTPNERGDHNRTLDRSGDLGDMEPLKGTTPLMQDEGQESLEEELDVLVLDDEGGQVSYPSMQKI
Assay: Inhibition of MUC1/CD binding to GST-p120 by peptides (glutathione bead precipitation, anti-MUC1/CD immunoblot)
Conditions: peptide incubated with MUC1/CD and GST-p120; immunoblot with anti-MUC1/CD (FIG. 7C)
Procedure: FIG. 7C is a pair of photographs of immunoblots. In the table above the immunoblots is indicated the mixtures of MUC1/CD, GST-p120, and GST which were incubated in the absence of inhibitor peptide (first and fourth lanes of both immunoblots) or in the presence of either a peptide with the amino acid sequence […] (SEQ ID NO:7) or a peptide with the amino acid sequence […] (SEQ ID NO:8). The four mixtures were incubated with glutathione-Sepharose 4B™ beads and proteins precipitated by the beads were subjected to immunoblot analysis with anti-MUC1/CD (“IB: anti-MUC1/CD”) (top immunoblot) or anti-p120 (“IB: anti-p120”) ([…]). The positions of MUC1/CD and p120 on the immunoblots are indicated.
To identify the site in MUC1/CD that binds to p120, full-length MUC1/CD and the N- and C-terminal fragments (FIG. 7A) were incubated with purified GST-p120. […] To further localize the site, two peptides from the overlapping region were prepared. […] These findings indicate that p120 interacts with the […] site (SEQ ID NO:7) in MUC1.

MSEYPTYHTH (listed as Homo sapiens) [peptide from the MUC1/CD region common to the N- and C-terminal fragments]
inhibition of the formation of MUC1-p120 complexes: inhibits the formation of MUC1-p120 complexes
